This assay concerns the target human CD38 on cells (human) (UniProt P28907). Nature of the assay: FACS Scatchard, IgG1 on Raji cells.

What is called Kd is a measure of binding affinity in units of concentration. A high value points to weaker binding. The substance Chimeric OKT10 (antibody) showed a Kd of 8.28 nM.

For the origin of these results see patent US20240309109A1.
